Experiment: label from the status in PepcDB records

| Sequence | protein production |
| --- | --- |
| MSLQLLIAQVLLLLLGSLGISAAAPDLIVKHGLRALLAVALTFAVARIRPRTLLKWGTNVWIVALVLLVLVLFIGQGSQDSPGVRRWLSIAGQEFQPSEFAKLALVLQLASFFSRRGVQNKLLSATGMIIATTALVIFEPDLGTSVLTFGLGIIVMYAAGVRLFNIGGLVLALGLFSLPFVNSYLESHPYILKRWTGHQVRDDGVVTGLDQIGMAHRDLNYGGWWGQGPDGPRWEYFAAHTDMVVAAVGFSSGLLGVLTLLFAYWLIVSTALQVAQLATRIRPMSAEIHGASILAIGCMFLVVGQAFVNLAVAAGLFPVTGVPLPLVSYGFSSMLTMSVALGIIHSAMREVRRQLPVEVKMDDFVGAAADD | failed |
| MKRALEFLKECGVFYLATNEGDQPRVRPFGAVFEYEGKLYIVSNNTKKCFKQMIQNPKVEISGMNKKGQWIRLTGEVANDDRREVKELALEAVPSLKNMYSVDDGIFAVLYFTKGEGTICSFKGENETFSL | not failed |
| MNKWAILSLACVPYALLTIVNEDTLEIGGSANIFWKIGLFAPLIGVLFSAGASKTYQRVMLALFNLSYYFVLYIYMIYTF | failed |
| MRCLRHARRQSQGVRGGRGMARADRGDGDGDAEAEDGRHSTASDARLTQLLRTDTATAYPALRELRTRHRPAVLGYARLCTVDDAAARRLTAQAFALAARDTARGSDPRGPWRHQLLLLAGRVAASWAADERAARLDPDLLAHLGAAGSRAQVPPLLAAFQSLPSRVQGVVWYAVVEGEPDDRTADFVGLTREDVTYGTEPAFQSLRQSCLTTRLAASDDPRCQDFRRLIEESVRPDNPRYSADLHAHMVHCVYCATAYDELSALRDDPRTALAAGLLAWGGAAYVTGGAVTRRAVAGGPGPSGPGPGDPGPGPAPGWWPSRRFVLASTALGVALIPFLAYLLVSGGPEPERAANAVATPSRPPAVTVTATVSATPSPSPSHTAGKSPKPSRSPSASKTTRPPSPKPSPKPPAPHPPNGSFAQVVNADSGLCLDIRDGVMDLGTDVVTAPCTSSRTQRWRVDTARGVLQSSEDPDFCLDSRGSTDRGVGIWECGAVYGRNGRNLRFTVDAQGVIRPAVAPDHAVTPYGDALFLVPAEGRAAQRWRAGAA | failed |
| MIAAPTQLAIMPFPNIDPIALSIGPLAIHWYGIAYVAGIMLGWFYARRLARTDRLWPNDTSPISAQHLDDFILWAAGGIVLGGRIGYILFYDMAAVAANPIRAIEIWNGGMSFHGGLIGTTIAMILFARRNGIPVWSMFDIIAAVAPIGLLFGRIANFINGELWGRIADVPWAVVFPTGGPFARHPSQLYEAGLEGLVLVVLLAIAIYVFKALKTPGTVTGIFVCGYALSRIFVEFFREPDAQIGYLAGNWLTMGMVLSTPMFLLGLWAVLRARSATKSA | not failed |
| MFEENEKEQLLYYERNKESEKCQKVWESIICKGLGYSKEEIRRDVERSRREKERLLSILYGSVFTGPKYLLYSKKWRGKTLNEIINEDREKNLNKNNFKNMDLDSTYFCELSFGYMDTAEENDDKNKKEITKQMEKKNDKVPNIRKGGNTNNSQNKRKTYHGEKNANTTNKDLDEFYSKLNYLEKRSYKNRYRNDNNNKKNNNNNNNNNNSNSNNNYYYYYSNGRSSYTNELSNEKNKYNEENSDEGNVIKYKYLPTGVFYSRVSKSFIANWIDDKTKKQVKIPYKISEYGIEKCMILAILSRNLRLSNLSNVLKYYDELTDSQKEQMLHAIRTTQKSEKLFEDIINRNGNKKNENNIINNYSNIHNDTSINNNNNNNNNNNNNIGNTIGTQHKNKNKQNANDQKNIPMKKKLIEKKKVKQSYVNEEKLPTGVYFYQGSYVANWWETNQKKQFKVPFKISEYGIARAKNLAIISRLIRSSSIPDINLILTQMENDHNLSDMDYTAISELAYKYIENMAKKE | failed |
| MYFSATLFNKYYKLLGTNDEGKLNLERTSSLAYFLALDQMQKDEEEPNAVINMYKDSLSRKNFMEKVGEIFVIAKNGSFEYQANILGCINKVEGGGNSMSSKTGKNFLSTQVISASSSPNPVGYPKRPAASFILELGFEIEGHKHGIKKSDSWKNNLMKFIEFRKCGTDTFPLIVFLLRDKQLNNNLDFNNAIREGLGSAYTQAVVDYLIVNAQVPSLVWDDLQNFATAPFTIDELDTELFMQDQPETNNLQPTVQVKEFKEIEIPNDISRNRIVYGAPGTGKSYKLNKDAKEFFPDDDLYIRVTLYPNYSYSQFVGTYKPTPIYKDVEGEFYKSDMVTSIGHGKEPLIDYTFVPGPFLIQLVNALKYPKSNFVIIIEEINRANAAAVFGDVFQLLDRKDDGESEYTITFNADVTNYLRKEGIFDLQIKIPKNLYIWATMNSADQGVTPLDTAFKRRWSFEYMPIDAGEGAVSSLEMELKFLENPILWNKFRKILNQKLKELMVPEDKLIGPFFMKSYELSNPESFKNKLLLYLRDDVLRHNATKFFKHQTFSDIVTAYDQGGNIFRTISKEELVRSE | not failed |
| MKQPTAVIFDWYNTLIDTSINIDRTTFYQVLDQMGYKNIDLDSIPNSTIPKYLITLLGKRWKEATILYENSLEKSQKSDNFMLNDGAIELLDTLKENNITMAIVSNKNGERLRSEIHHKNLTHYFDSIIGSGDTGTIKPSPEPVLAALTNINIEPSKEVFFIGDSISDIQSAIEAGCLPIKYGSTNIIKDILSFKNFYDIRNFICQLINI | not failed |
| MQLMRFDKPIGTLLLLHPTLWALFAAAGGIPSSSILIIFILGVIVMRAAGCVINDYADRHIDGKVKRTSQRPLATGRVTTVEAKVLFFVLLIIAFLLDLSLNQYAFLLSFVAVALAVIYPFMKRFTHLPQVVLGMAFGWAIPMAYGAVIEDLPLTCWLLFLANILWTVAYDTQYAMVDRDDDLRIGVKSTAILFAQYDNKIIALLQFLSLILFILFGWLSEYHIGYFIVLALTSTLFIYQCWLTKQRVREQCFKAFLNNNYFGFGIFIAILVGIYGF | failed |
| SGFRKMAFPSGKVEGCMVQVTCGTTTLNGLWLDDTVYCPRHVICTAEDMLNPNYEDLLIRKSNHSFLVQAGNVQLRVIGHSMQNCLLRLKVDTSNPKTPKYKFVRIQPGQTFSVLACYNGSPSGVYQCAMRPNHTIKGSFLNGSCGSVGFNIDYDCVSFCYMHHMELPTGVHAGTDLEGKFYGPFVDRQTAQAAGTDTTITLNVLAWLYAAVINGDRWFLNRFTTTLNDFNLVAMKYNYEPLTQDHVDILGPLSAQTGIAVLDMCAALKELLQNGMNGRTILGSTILEDEFTPFDVVRQCSGVTFQ | not failed |
| MFVTLQTVQESEKEILRNLYALYLHDLSTFTSNITIGANGFFEYEDLHMFWVNDGITPYFIKSDNEIVGFLLLLERPFLKKENDFGINDIFILNQYKGKGIGKQVIESLLKEKRGQYFVIELVKNVPAVSFWKKVYRELNIEFDEKIQLIDDEECLVQTFEI | failed |
| MALTEEEKSINIVDLFIYLIAHWKWFVLSILLFGGYFWYSYCETPFVYSRTAIVMIKTPANSRSAMQLNNADFIGQVNVASEILQFKSKELMRKVIDRLHADVSYMVRDGLRPRELYTDSPVRVAFLEAGLDEVCSLSVIPKNKQQVELADFSLDELEQRKTVNLNDTVDTPLGKLIVFTAENYSESYFDRPIKVTSKSREGMVAFWLSNLTIRQMSGDAALLSMTMNDLSPTRAADILDMLITVYNEEAIKDKNRISVNTAEFIKERLQIIEHELGSVETDIEDLKRANNGVDINTVAGMYIQDSRQYESSIKELDTQLQLVSFIKQYLQDSNKDDELIPSNIGLSDLSIESQISRYNETLLRRNRLVSGSSSNNPVVQELNRIMQTMKQNIYMAVDNLSKSLRLKKQDYMRQESHVRQKVQAVPGKQREMLSIERQQKVKESLYIFLLNKREENALSQAMVDNNARILDPVSGSNLPISPNKYKKMILGVGCGIIVPSVILLLILMLDTRVHNRKEVEAVVSAPFLADIPQTAKASVDAHEVVVRARGLDPLSEAFRILRTNLGFMLSQAQDHKIITLTSFNIGAGKTFVSVNLAASLVQTKKKVLILDLDLRKGKMSEMAHSKHVKGVAHYLSNPSIVVDDLILRDAFGEGLDLIPIGVIAPNPTELLLSRRLDELMDRLRELYDYIIVDNVPIGLVADASVVNRISDLTLFIVRVGKIDRRQLPELERLYQEHKLTNMAVVLNGTKKGSSGYGYGYGYGQGYGYKNAEKKKGLFGRKKKKSRK | failed |
